Measurements published in patent US12606635B2, “Glypican-2-binding moieties, chimeric antigen receptors and uses thereof” (Nanjing Legend Biotech Co., Ltd., priority 2020, dated 2026).

Legend:
[1] = tested on: IMR-32; assay: IFNγ release in co-culture with IMR-32; type: cell-based, human; details: Example 7, co-culture with IMR-32, FIG. 8D-8F
Source text: (§1) In addition to the cytotoxicity data above, supernatants from the in vitro co-culture assays were also collected to assess CAR T cells-induced cytokine release, e.g., release of interferon gamma (i.e., IFNγ), as another indicator of cytotoxicity, was quantified using a HTRF human IFNγ AlphaLISA kit (Perkin Elmer, #62HIFNGPEH) per manufacturer's instruction. […] No significant cytokine release were detected against GPC2-negative cell line A-431.
(§2) Supernatants from the in vitro co-culture assays were collected to assess CAR T cells-induced cytokine release, e.g., interferon gamma (i.e., IFNγ) release as described in Example 6. […] IFNγ was not induced in GPC2-negative A-431 cells. […] Cytokine release data was consistent with the in vitro cytotoxicity data.

[2] = tested on: human neuroblastoma cell line SH-SY5Y; assay: In vitro cytotoxicity assay (LDH), SH-SY5Y; type: cell-based; details: 1:1 effector to target ratio, FIG. 8B
Procedure: (§3) The pre-activated T cells were transduced with lentivirus stock in the presence of […] polybrene and 300 IU/mL IL-2. T cells and lentivirus were centrifuged at 1000 g, 32° C. for 1 h and placed in humidified cell culture incubator for transgene expression under suitable conditions. On day 5 or day 7 or day 10 post-transduction, transduced T cells were harvested and co-incubated with tumor cells at an effector (CAR T) to target cell ratio of 10:1 or 5:1 or 2:1 or 1:1 or 0.2:1 for 20 hours. Target cells were human neuroblastoma cell line SH-SY5Y (ATCC, #CRL-2266), human neuroblastoma cell line IMR-32 cells (ATCC, #CCL-127), or human epidermoid carcinoma cell line A-431 (ATCC, #CRL-1555). To assay the cytotoxicity of CAR T cells on tumor cells, the Cytotoxicity Detection Kit (LDH) (Roche, #11644793001) assay reagents were prepared according to manufacturer's protocol. Reaction mix was added to the cell-free supernatant of each sample to detect the LDH released from cells. Optical densities at OD492 nm and OD650 nm were measured by PHERStar Microplate Reader. Baseline LDH released from the target cell in the absence of effector cells and effector cell in the absence of target cells were subtracted from the total LDH amount. The target maximum release was obtained by adding Triton-X100 at a final concentration of 1% to target cells in the absence of effector cells at the time when the cytotoxicity assays initiated. Supernatant from target cells in the absence of effector cells was used for target minimum release. The specific cytotoxicity was calculated by the formula: % Target cell lysis=100*[(OD CAR T cell+Target cell)−(OD CAR T cell)−(OD Target cell)+(OD Buffer background)]/(OD Target Maximum release−OD Target Minimum release).
(§4) On day 5 or day 8 or day 10 post-transduction, transduced T cells were harvested and co-incubated with tumor cells at an effector (CAR T) to target cell ratio of 10:1 or 1:1 or 0.2:1 for 20 hours. To assay the cytotoxicity of CAR T cells on tumor cells, the Cytotoxicity Detection Kit (LDH) (Roche, #11644793001) was added to the culture supernatant and the specific cytotoxicity for each CAR T cell construct was measured as described in Example 6.

[3] = tested on: human neuroblastoma cell line IMR-32; assay: In vitro cytotoxicity assay (LDH), IMR-32; type: cell-based; details: 1:1 effector to target ratio, FIG. 8B
Procedure: as §3, with “Supernatant from target cells in the absence of effector cells was used for target minimum release.” left out
as §4

[4] = tested on: SH-SY5Y; assay: IFNγ release in co-culture with SH-SY5Y; type: cell-based, human; details: Example 7, co-culture with SH-SY5Y, FIG. 8D-8F
Source text: as §1, §2

B1: CAS71529VH5-BBz: humanized VHH anti-GPC2 CAR (4-1BB, CD3ζ), SEQ ID NO: 222; tested as CAR T cells (protein)
chain: MALPVTALLLPLALLLHAARPEVQLVESGGGLVQPGGSLRLSCAVSEYRYSSRYCMGWFRQAPGKGLEGVSAIDSNGSADYVDSVKGRFTISKDNSKNTLYLQMNSLRAEDTAVYYCAADHLAYDCYSGATSVFRYWGQGTLVTVSSTTTPAPRPPTPAPTIASQPLSLRPEACRPAAGGAVHTRGLDFACDIYIWAPLAGTCGVLLLSLVITLYCKRGRKKLLYIFKQPFMRPVQTTQEEDGCSCRFPEEEEGGCELRVKFSRSADAPAYKQGQNQLYNELNLGRREEYDVLDKRRGRDPEMGGKPRRKNPQEGLYNELQKDKMAEAYSEIGMKGERRRGKGHDGLYQGLSTATKDTYDALHMQALPPR
modifications: expressed in CAR T cells; CAS71529VH5-BBz
**Q.** B1 was tested. Which IFNγ release [1] did it give?
**A.** The IFNγ release was “high levels of IFNγ”.

**Q.** And the “cytotoxicity against SH-SY5Y” value [2]?
**A.** Its value is “less than 30%”.

**Q.** And the “cytotoxicity against IMR-32” value [3]?
**A.** The value was “less than 30%”.

**Q.** And the IFNγ release [4]?
**A.** Its IFNγ release is “high levels of IFNγ”.
